A word on the IC50: it is the concentration at which inhibition is half-maximal.

In patent publication US20080038775A1 (published 2008) one finds activity in the TCF luciferase assay compared with baculovirus Dkk1 (FIG. 4) (% greater activity than R&D Systems Dkk1), Kd and IC50 data, which are given here for 2 molecules.

Assay [1] has as its target LRP5 protein (form not named at the place) (UniProt O75197). The assay is described as follows: cell-based or functional assay.
The target of assay [2] is T1, LRP5prop3,4LBD V5His (propellers 3 and 4 and ligand binding domain of LRP5, amino acids 642 to 1376 of … (UniProt O75197 642-1376)).
T1 construct: range 642-1376; Secreted from HEK293T cells co-transfected with RAP; also called LRP5VHis prop3,4; not shown: V5 (and His) tag from the pcDNA3.1/V5 expression vector
T1 sequence (looked up): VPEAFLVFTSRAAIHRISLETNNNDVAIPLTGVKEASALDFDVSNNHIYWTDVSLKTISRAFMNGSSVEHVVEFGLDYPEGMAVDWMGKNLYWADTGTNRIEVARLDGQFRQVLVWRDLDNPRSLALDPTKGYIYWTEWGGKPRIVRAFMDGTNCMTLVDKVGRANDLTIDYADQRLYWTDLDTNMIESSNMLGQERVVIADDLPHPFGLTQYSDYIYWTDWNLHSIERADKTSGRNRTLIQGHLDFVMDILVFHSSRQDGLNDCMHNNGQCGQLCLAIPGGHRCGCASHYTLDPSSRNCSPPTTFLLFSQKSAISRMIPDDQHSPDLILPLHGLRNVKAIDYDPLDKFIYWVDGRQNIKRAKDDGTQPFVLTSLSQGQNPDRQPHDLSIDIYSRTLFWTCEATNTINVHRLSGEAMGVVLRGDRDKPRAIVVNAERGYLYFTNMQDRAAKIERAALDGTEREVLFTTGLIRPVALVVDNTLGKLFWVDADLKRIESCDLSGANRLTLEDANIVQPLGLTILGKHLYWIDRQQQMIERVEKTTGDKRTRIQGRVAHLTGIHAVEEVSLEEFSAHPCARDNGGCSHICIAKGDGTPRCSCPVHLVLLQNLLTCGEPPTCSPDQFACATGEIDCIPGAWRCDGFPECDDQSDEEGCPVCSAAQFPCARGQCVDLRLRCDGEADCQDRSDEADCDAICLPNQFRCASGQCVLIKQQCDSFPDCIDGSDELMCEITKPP
Description: TR-FRET (anti-V5-Eu / anti-myc-Cy5), apparent Kd, concentrations of Dkk1 and LRP5prop34LBD varied, 50 mM PIPES pH 6.5. How it is done: The time resolved fluorescence resonance energy transfer (TR-FRET) platform was chosen to develop an assay for Dkk1-LRP5prop34LBD interaction because the TR-FRET assay is highly sensitive, easy to set up and capable of detecting weak interactions. For this assay, two labeled molecules are added to the system. If an interaction occurs, the labels are brought into close proximity and energy transfer occurs to release energy at specific wavelengths that can be detected. For detection of interaction between Dkk1 and LRP5prop34LBD, the Dkk1 (tagged with myc) is effectively labeled using a Cy5 labeled monoclonal anti-myc antibody. […] Cy5 absorbs at 615 nm and emits energy at 665 nm which is detected. The measurement was conducted on a Wallac EnVision 2100 Multilabel Reader from PerkinElmer Life Science. […] The interaction between Dkk1 and LRP5prop3,4LBD is expressed as the ratio of fluorescence intensity at 665 nm over 615 nm, which represents the energy transfer from the europium to Cy5 dye. […]
Kdapp Determination. The observed Kdapp was determined by varying concentrations of Dkk1 and LRP5prop34LBD in the reaction mixture containing 50 mM PIPES (pH 6.5), 0.5 mM DTT, 0.01% Tween-20, 0.5 nM V5-mAb-Eu, and 15 nM ,myc-Ab-Cy5. […] Kd-value determined here is a Kdapp-value as the antibody concentration is limiting in the assay. […]
(In general: In TR-FRET formats the signal depends on donor and acceptor labels being close together.)

Assay [3] addresses T1, LRP5prop3,4LBD V5His (propellers 3 and …). Description: TR-FRET competition; untagged R&D Dkk1 titrated against myc-tagged Dkk1 binding to LRP5prop34LBD. On the procedure: The time resolved fluorescence resonance energy transfer (TR-FRET) platform was chosen to develop an assay for Dkk1-LRP5prop34LBD interaction because the TR-FRET assay is highly sensitive, easy to set up and capable of detecting weak interactions. For this assay, two labeled molecules are added to the system. If an interaction occurs, the labels are brought into close proximity and energy transfer occurs to release energy at specific wavelengths that can be detected. For detection of interaction between Dkk1 and LRP5prop34LBD, the Dkk1 (tagged with myc) is effectively labeled using a Cy5 labeled monoclonal anti-myc antibody. The LRP5prop34LBD (tagged with V5) is effectively labeled using a Europium labeled monoclonal anti-V5 antibody. Europium is excited at 340 nm and re-emits energy at 615 nm. Cy5 absorbs at 615 nm and emits energy at 665 nm which is detected. The measurement was conducted on a Wallac EnVision 2100 Multilabel Reader from PerkinElmer Life Science. […] The interaction between Dkk1 and LRP5prop3,4LBD is expressed as the ratio of fluorescence intensity at 665 nm over 615 nm, which represents the energy transfer from the europium to Cy5 dye. […]
Dkk1 without a myc tag was purchased from R&D Inc. and is a Dkk1 synthesized in a baculovirus/insect cell system. […] The data were analyzed with Grafit 5 (Erithacus Software).

B1: Dkk1mycHis (wild-type human Dkk1 with C-terminal c-myc and His6 tags, secreted by HEK293T cells; used purified or as conditioned media) (ligand)
chain: ATLNSVLNSNAIKNLPPPLGGAAGHPGSAVSAAPGILYPGGNKYQTIDNYQPYPCAEDEECGTDEYCASPTRGGDAGVQICLACRKRRKRCMRHAMCCPGNYCKNGICVSSDQNHFRGEIEETITESFGNDHSTLDGYSRRTTLSSKMYHTKGQEGSVCLRSSDCASGLCCARHFWSKICKPVLKEGQVCTKHRRKGSHGLEIFQRCYCGEGLSCRIQKDHHQASNSSRLHTCQRHSRGPFEQKLISEEDLNMHTGHHHHHH
modifications: N-linked glycosylation (mammalian pattern); 125I-labelled by the chloramine-T method only in the radioligand assay of Example 10
notes: Secreted protein; also called WT; wild-type Dkk1
Take B1: in assay [1], the activity in the TCF luciferase assay compared with baculovirus Dkk1 (FIG. 4) (% greater activity than R&D Systems Dkk1) was found to be 25. Further, in assay [2], the Kd worked out at 11.8 nM.

B2: Recombinant human Dkk1 from R&D Systems (Cat. No. 1096-DK/CF), baculovirus/insect cell derived (ligand, UniProt O94907 32-266, looked up)
chain: TLNSVLNSNAIKNLPPPLGGAAGHPGSAVSAAPGILYPGGNKYQTIDNYQPYPCAEDEECGTDEYCASPTRGGDAGVQICLACRKRRKRCMRHAMCCPGNYCKNGICVSSDQNHFRGEIEETITESFGNDHSTLDGYSRRTTLSSKMYHTKGQEGSVCLRSSDCASGLCCARHFWSKICKPVLKEGQVCTKHRRKGSHGLEIFQRCYCGEGLSCRIQKDHHQASNSSRLHTCQRH
modifications: 125I-labelled in the radioligand assay of Example 10 only
notes: Bought protein; no myc tag; also called R&D Dkk1; R&D Systems Dkk1
B2 had an IC50 in assay [3] of 1.42 nM.
